Assay results from the Immune Epitope Database (IEDB).

Legend:
HLA-B*15:01 = test: IEDB peptide-MHC binding, purified MHC/competitive/radioactivity; filed as Kd, often an IC50 or EC50 that approximates it; ≥ and ≤ were set here for values at or beyond the usual limits of such assays
HLA-A*26:01 [1] = test: as above
HLA-A*29:02 = test: as above
HLA-A*30:01 = test: as above
HLA-A*01:01 = test: as above
HLA-A*30:02 = test: as above
HLA-A*32:01 = test: as above
HLA-A*02:01 = test: as above
HLA-B*40:01 = test: as above
HLA-B*53:01 = test: as above
HLA-B*35:01 = test: as above
HLA-B*54:01 = test: as above
HLA-B*51:01 [2] = test: as above
HLA-B*07:02 = test: as above
HLA-B*44:03 = test: as above
HLA-B*44:02 = test: as above
HLA-B*08:01 = test: as above
HLA-A*69:01 [3] = test: IEDB peptide-MHC binding, purified MHC/direct/fluorescence; filed as Kd, often an IC50 or EC50 that approximates it; ≥ and ≤ were set here for values at or beyond the usual limits of such assays; conditions: source organism: Mycobacterium tuberculosis
HLA-A*02:12 = test: as above; conditions: source organism: Mycobacterium tuberculosis str. Haarlem
HLA-A*02:06 = test: IEDB peptide-MHC binding, purified MHC/competitive/radioactivity; filed as Kd, often an IC50 or EC50 that approximates it; ≥ and ≤ were set here for values at or beyond the usual limits of such assays; conditions: source organism: Dengue virus 4 Philippines/H241/1956
HLA-A*69:01 [4] = test: IEDB peptide-MHC binding, purified MHC/competitive/fluorescence; filed as Kd, often an IC50 or EC50 that approximates it; ≥ and ≤ were set here for values at or beyond the usual limits of such assays; conditions: source organism: Homo sapiens
HLA-A*26:01 [5] = test: as above; conditions: source organism: Homo sapiens
HLA-B*46:01 = test: as above; conditions: source organism: Homo sapiens
HLA-B*57:01 = test: as above; conditions: source organism: Homo sapiens
HLA-B*51:01 [6] = test: as above; conditions: source organism: Homo sapiens
HLA-B*27:03 = test: as above; conditions: source organism: Homo sapiens
HLA-A*03:01 = test: as above; conditions: source organism: Bacillus anthracis str. A0488
HLA-A*24:02 = test: IEDB peptide-MHC binding, purified MHC/competitive/radioactivity; filed as Kd, often an IC50 or EC50 that approximates it; ≥ and ≤ were set here for values at or beyond the usual limits of such assays; conditions: source organism: Lymphocytic choriomeningitis virus (strain Armstrong)
HLA-A*23:01 = test: as above; conditions: source organism: Lymphocytic choriomeningitis virus (strain Armstrong)
[7] = source organism: Vaccinia virus WR
[8] = source organism: Mammarenavirus whitewaterense
[9] = source organism: Lassa virus Josiah
[10] = source organism: Dengue virus 2 Jamaica/1409/1983
[11] = source organism: Mammarenavirus juninense
[12] = source organism: Dengue virus 4 Philippines/H241/1956
[13] = source organism: Dengue virus 3 Martinique/1243/1999
[14] = source organism: SARS coronavirus Tor2
[15] = source organism: Mammarenavirus brazilense
[16] = source organism: Lymphocytic choriomeningitis virus (strain Armstrong)
[17] = source organism: Dengue virus 4 Dominica/814669/1981

FLLSLVEFF showed a Kd (HLA-B*15:01; [7]) of 0.816 nM.

In the case of ATTNAHCALL, the Kd (HLA-A*26:01 [1]; [8]) is reported as ≥ 69700 nM, the Kd (HLA-A*29:02; [8]) is reported as ≥ 71400 nM and the Kd (HLA-A*30:01; [8]) is reported as 2350 nM. The Kd (HLA-A*01:01; [8]) was 7670 nM, the Kd (HLA-A*30:02; [8]) was 6040 nM and the Kd (HLA-A*32:01; [8]) was ≥ 69900 nM.

For FIMIVGGLV, the Kd (HLA-A*02:01; source organism: HIV-1 M:B_MN) was 382 nM.

Work on LIALSVLAVL yielded a Kd (HLA-A*02:01; [9]) of 2780 nM.

LETLLLLTLL gave a Kd (HLA-B*40:01; [10]) of 101 nM.

MAVELFQTI gave a Kd (HLA-B*53:01; [11]) of 6.99 nM, a Kd (HLA-B*35:01; [11]) of 61 nM and a Kd (HLA-B*54:01; [11]) of 188 nM. The Kd (HLA-B*51:01 [2]; [11]) was 8.54 nM and the Kd (HLA-B*07:02; [11]) was 7280 nM.

Work on VEMGEAAGIF yielded a Kd (HLA-B*40:01; [10]) of 1150 nM, a Kd (HLA-B*44:03; [10]) of 592 nM and a Kd (HLA-B*44:02; [10]) of 39.2 nM.

In the case of ALPRNMVIT, the Kd (HLA-A*02:01; [9]) is reported as 12500 nM.

YLLSLFSTL was tested, and the Kd (HLA-B*08:01; [7]) was 4.02 nM.

For NEGIMAVGL, the Kd (HLA-B*40:01; [12]) was 2260 nM and the Kd (HLA-B*44:03; [12]) was 1540 nM.

For AIKLGFKSL, the Kd (HLA-B*08:01; [7]) was 41.3 nM.

In the case of LNRRRRTAG, the Kd (HLA-B*08:01; [10]) is reported as 739 nM.

For GLLDVTDNV, the Kd (HLA-A*69:01 [3]) was 486 nM and the Kd (HLA-A*02:12) was 3 nM.

With IENLEYTVVV the Kd (HLA-B*40:01; [12]) was 157 nM.

Work on ATIWRSLSI yielded a Kd (HLA-A*32:01; source organism: Vaccinia virus Copenhagen) of 1.89 nM.

LEADYVESM was tested, and the Kd (HLA-B*15:01; [7]) was 434 nM.

SPMGKLTFF gave a Kd (HLA-B*08:01; [7]) of 262 nM.

AMIELCGAF showed a Kd (HLA-B*15:01; [7]) of 0.336 nM.

Work on IQRTVFFVL yielded a Kd (HLA-B*15:01; [12]) of 5.09 nM and a Kd (HLA-A*02:06) of 12.3 nM.

LGKKKTPRM gave a Kd (HLA-B*08:01; [10]) of 378 nM.

In the case of KMFTYLMES, the Kd (HLA-A*69:01 [4]) is reported as ≥ 20000 nM, the Kd (HLA-A*26:01 [5]) is reported as ≥ 20000 nM and the Kd (HLA-B*46:01) is reported as ≥ 20000 nM. The Kd (HLA-B*57:01) was ≥ 20000 nM, the Kd (HLA-B*51:01 [6]) was ≥ 20000 nM and the Kd (HLA-B*27:03) was ≥ 20000 nM.

In the case of IILAHFLYK, the Kd (HLA-A*03:01) is reported as 12 nM.

LMGFRNSAL was tested, and the Kd (HLA-B*08:01; [7]) was 1100 nM.

Work on YLRTKPASA yielded a Kd (HLA-B*08:01; [7]) of 1.48 nM.

AVFKMSPGY gave a Kd (HLA-A*26:01 [1]; [12]) of 1920 nM, a Kd (HLA-B*15:01; [12]) of 14.3 nM and a Kd (HLA-A*30:02; [12]) of 82.2 nM.

In the case of NRRKRSVTM, the Kd (HLA-B*08:01; source organism: Dengue virus 1 Brazil/97-11/1997) is reported as 6.72 nM.

For LEKASLIEV, the Kd (HLA-B*40:01; [13]) was 1030 nM and the Kd (HLA-B*44:02; [13]) was ≥ 77900 nM.

For VPYNMRVIHF, the Kd (HLA-B*53:01; [14]) was 688 nM, the Kd (HLA-B*35:01; [14]) was 1440 nM and the Kd (HLA-B*54:01; [14]) was 505 nM. For the same sequence, the Kd (HLA-B*51:01 [2]; [14]) was 5590 nM and the Kd (HLA-B*07:02; [14]) was 149 nM.

For LLSEMLNKEY, the Kd (HLA-A*26:01 [1]; [15]) was 15800 nM, the Kd (HLA-A*29:02; [15]) was 511 nM and the Kd (HLA-A*30:01; [15]) was 10900 nM. For the same sequence, the Kd (HLA-A*01:01; [15]) was 446 nM, the Kd (HLA-A*30:02; [15]) was 701 nM and the Kd (HLA-A*32:01; [15]) was ≥ 38600 nM.

With VCLSGEGWPY the Kd (HLA-A*26:01 [1]; [16]) was ≥ 69700 nM, the Kd (HLA-A*24:02) was ≥ 70300 nM and the Kd (HLA-A*30:01; [16]) was ≥ 33200 nM. For the same sequence, the Kd (HLA-A*23:01) was ≥ 70000 nM and the Kd (HLA-A*32:01; [16]) was ≥ 26100 nM.

LMYADDTAGW showed a Kd (HLA-B*15:01; [17]) of 41.6 nM and a Kd (HLA-B*53:01; [17]) of 46.1 nM.

In the case of GPMPYMISTY, the Kd (HLA-B*53:01; [7]) is reported as 272 nM, the Kd (HLA-B*35:01; [7]) is reported as 89.3 nM and the Kd (HLA-B*54:01; [7]) is reported as 1500 nM. For the same sequence, the Kd (HLA-B*51:01 [2]; [7]) was ≥ 64700 nM and the Kd (HLA-B*07:02; [7]) was 886 nM.
